This note sets out measurements from PMC8884472 (Molecular cell, 2022).

The chains are these.
B2: recombinant KLHL12^6xHis (natural protein, UniProt Q53G59 1-568, looked up)
chain: MGGIMAPKDIMTNTHAKSILNSMNSLRKSNTLCDVTLRVEQKDFPAHRIVLAACSDYFCAMFTSELSEKGKPYVDIQGLTASTMEILLDFVYTETVHVTVENVQELLPAACLLQLKGVKQACCEFLESQLDPSNCLGIRDFAETHNCVDLMQAAEVFSQKHFPEVVQHEEFILLSQGEVEKLIKCDEIQVDSEEPVFEAVINWVKHAKKEREESLPNLLQYVRMPLLTPRYITDVIDAEPFIRCSLQCRDLVDEAKKFHLRPELRSQMQGPRTRARLGANEVLLVVGGFGSQQSPIDVVEKYDPKTQEWSFLPSITRKRRYVASVSLHDRIYVIGGYDGRSRLSSVECLDYTADEDGVWYSVAPMNVRRGLAGATTLGDMIYVSGGFDGSRRHTSMERYDPNIDQWSMLGDMQTAREGAGLVVASGVIYCLGGYDGLNILNSVEKYDPHTGHWTNVTPMATKRSGAGVALLNDHIYVVGGFDGTAHLSSVEAYNIRTDSWTTVTSMTTPRCYVGATVLRGRLYAIAGYDGNSLLSSIECYDPIIDSWEVVTSMGTQRCDAGVCVLREK

For assay [1], the target named is B2. Description: pull-down.
Assay [2] addresses recombinant CUL3/RBX1 (UniProt Q13618 1-768; P62877 1-108). Description: pull-down.

Sequence of recombinant CUL3/RBX1 (Q13618 whole entry, chain 1 of 2): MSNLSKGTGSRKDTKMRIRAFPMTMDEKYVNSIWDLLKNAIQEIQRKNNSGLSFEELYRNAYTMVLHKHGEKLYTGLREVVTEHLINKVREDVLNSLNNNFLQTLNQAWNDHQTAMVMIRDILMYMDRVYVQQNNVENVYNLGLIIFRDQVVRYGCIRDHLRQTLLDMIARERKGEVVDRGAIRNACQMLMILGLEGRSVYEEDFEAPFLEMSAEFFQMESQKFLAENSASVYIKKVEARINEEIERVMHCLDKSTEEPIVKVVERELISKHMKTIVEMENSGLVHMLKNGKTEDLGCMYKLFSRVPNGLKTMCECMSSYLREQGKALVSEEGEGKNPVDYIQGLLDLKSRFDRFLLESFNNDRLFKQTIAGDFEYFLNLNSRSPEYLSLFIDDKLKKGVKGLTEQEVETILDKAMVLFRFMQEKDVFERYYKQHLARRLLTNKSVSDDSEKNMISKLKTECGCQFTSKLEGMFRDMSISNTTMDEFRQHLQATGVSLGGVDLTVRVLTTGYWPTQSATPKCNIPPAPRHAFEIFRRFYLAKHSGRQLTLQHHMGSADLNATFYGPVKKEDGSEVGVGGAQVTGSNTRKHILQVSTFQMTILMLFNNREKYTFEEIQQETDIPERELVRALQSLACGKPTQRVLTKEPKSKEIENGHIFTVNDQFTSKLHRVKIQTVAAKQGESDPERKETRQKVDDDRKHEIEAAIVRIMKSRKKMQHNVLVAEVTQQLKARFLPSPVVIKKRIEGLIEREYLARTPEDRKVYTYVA
Sequence of recombinant CUL3/RBX1 (P62877 whole entry, chain 2 of 2): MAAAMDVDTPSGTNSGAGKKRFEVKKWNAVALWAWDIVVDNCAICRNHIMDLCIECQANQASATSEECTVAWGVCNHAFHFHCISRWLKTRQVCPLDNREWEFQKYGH

B1: recombinant PEF1 (natural protein, UniProt Q9UBV8 1-284, looked up)
chain: MASYPYRQGCPGAAGQAPGAPPGSYYPGPPNSGGQYGSGLPPGGGYGGPAPGGPYGPPAGGGPYGHPNPGMFPSGTPGGPYGGAAPGGPYGQPPPSSYGAQQPGLYGQGGAPPNVDPEAYSWFQSVDSDHSGYISMKELKQALVNCNWSSFNDETCLMMINMFDKTKSGRIDVYGFSALWKFIQQWKNLFQQYDRDRSGSISYTELQQALSQMGYNLSPQFTQLLVSRYCPRSANPAMQLDRFIQVCTQLQVLTEAFREKDTAVQGNIRLSFEDFVTMTASRML
On to B1, for which the binding result in assay [1] is on record as “binds”.
For the molecule B2, the binding result in assay [2] is listed as “binds”.
